The source of these data is paper PMC10209092.

In the experiment the target is endogenous AMPKα (5'-adenosine monophosphate-activated protein kinase, α subunit), Q13131. The experiment is described as follows: co-immunoprecipitation, quantified band intensity. To be noted: chain shown with the change, n=2 (WT n=3), read off a plot.
Sequence of endogenous AMPKα (5'-adenosine monophosphate-activated protein kinase, α subunit), Q13131 (Q13131 whole entry): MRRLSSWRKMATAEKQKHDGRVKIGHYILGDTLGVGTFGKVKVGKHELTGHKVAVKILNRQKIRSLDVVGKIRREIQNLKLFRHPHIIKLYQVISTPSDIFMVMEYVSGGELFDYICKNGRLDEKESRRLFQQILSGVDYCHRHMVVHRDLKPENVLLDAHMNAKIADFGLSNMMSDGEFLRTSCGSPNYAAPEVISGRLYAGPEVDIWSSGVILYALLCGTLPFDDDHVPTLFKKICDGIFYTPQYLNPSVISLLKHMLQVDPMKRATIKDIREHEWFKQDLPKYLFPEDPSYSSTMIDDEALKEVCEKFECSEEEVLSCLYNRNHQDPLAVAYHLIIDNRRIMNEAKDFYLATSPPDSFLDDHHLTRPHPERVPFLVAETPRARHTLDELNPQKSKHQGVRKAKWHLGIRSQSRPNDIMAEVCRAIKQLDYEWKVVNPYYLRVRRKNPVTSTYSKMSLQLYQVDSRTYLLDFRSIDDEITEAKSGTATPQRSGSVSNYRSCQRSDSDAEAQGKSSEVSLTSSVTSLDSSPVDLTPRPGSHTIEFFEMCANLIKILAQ

B1: myc-tagged ULK1 (UNC-51 like kinase 1), wild type, O75385 S556A; T660A (protein)
chain: MEPGRGGTETVGKFEFSRKDLIGHGAFAVVFKGRHREKHDLEVAVKCINKKNLAKSQTLLGKEIKILKELKHENIVALYDFQEMANSVYLVMEYCNGGDLADYLHAMRTLSEDTIRLFLQQIAGAMRLLHSKGIIHRDLKPQNILLSNPAGRRANPNSIRVKIADFGFARYLQSNMMAATLCGSPMYMAPEVIMSQHYDGKADLWSIGTIVYQCLTGKAPFQASSPQDLRLFYEKNKTLVPTIPRETSAPLRQLLLALLQRNHKDRMDFDEFFHHPFLDASPSVRKSPPVPVPSYPSSGSGSSSSSSSTSHLASPPSLGEMQQLQKTLASPADTAGFLHSSRDSGGSKDSSCDTDDFVMVPAQFPGDLVAEAPSAKPPPDSLMCSGSSLVASAGLESHGRTPSPSPPCSSSPSPSGRAGPFSSSRCGASVPIPVPTQVQNYQRIERNLQSPTQFQTPRSSAIRRSGSTSPLGFARASPSPPAHAEHGGVLARKMSLGGGRPYTPSPQVGTIPERPGWSGTPSPQGAEMRGGRSPRPGSSAPEHSPRTSGLGCRLHAAPNLSDLHVVRPKLPKPPTDPLGAVFSPPQASPPQPSHGLQSCRNLRGSPKLPDFLQRNPLPPILGSPTKAVPSFDFPKTPSSQNLLALLARQGVVMTPPRNRALPDLSEVGPFHGQPLGPGLRPGEDPKGPFGRSFSTSRLTDLLLKAAFGTQAPDPGSTESLQEKPMEIAPSAGFGGSLHPGARAGGTSSPSPVVFTVGSPPSGSTPPQGPRTRMFSAGPTGSASSSARHLVPGPCSEAPAPELPAPGHGCSFADPITANLEGAVTFEAPDLPEETLMEQEHTEILRGLRFTLLFVQHVLEIAALKGSASEAAGGPEYQLQESVVADQISLLSREWGFAEQLVLYLKVAELLSSGLQSAIDQIRAGKLCLSSTVKQVVRRLNELYKASVVSCQGLSLRLQRFFLDKQRLLDRIHSITAERLIFSHAVQMVQSAALDEMFQHREGCVPRYHKALLLLEGLQHMLSDQADIENVTKCKLCIERRLSALLTGICA
Turning to B1, the response (relative AMPK-ULK1 interaction) reads like this: (amino acids +, A769662 +, parent: est. 1.2) 1; (amino acids +, A769662 -, parent: est. 1.0) 0.4; (amino acids -, A769662 +, parent: est. 1.1) 0.15; (amino acids -, A769662 -, parent: est. 0.25) 0.1.
